Experiment: soluble on expression in E. coli; label from the status in PepcDB or PDB records

Soluble on expression in E. coli, not soluble:
MGSDKIHHHHHHMQLQELHMLVVLAEELNMRKAAERLFVSQPALSQRLQTIEKAWGTKIFLRSQKGLTVTPAGEKIIQFANDVTLEQERIRENIDELEGEIHGTLKLAVASIIGQHWLPKVLKTYVEKYPNAKISLITGWSSEMLKSLYEDQVHIGIIRGNPEWKGRKDYLMTDHLYLVDTEISCIEDIAHTERPFIQFKSDSTYFQEIQHWWHQKFKTSPKQTILVDQIETCKQMALHGIGYAILPSVTLQNEDKVNKMPLLDMKGHPIGRDTWLLGYEPAFELKQVQAFVQVIKDMLDQENPF
MGSDKIHHHHHHMQNWLKQITTGAMIGTTVLVTSACTMRLSESTFIASDEVPVAFTAEFTQQLQQAMPNHLITPLSLEASDHVKLNGFYIDNPNSLTTLVFYQGNGMKIEPHGLSVLTTLSTLNTDILVMDRRGLGASEGQPSINNIIADAQQQLDYLHQQYQPEKVILHGYSLGSFIAADLAKNNKIDALILHGSATNADDWVDEKTPWYMAPFMTLEMPEDFRKTDNKQVVAQYYQGPLLVIAAEEDEEVPPELSEKLFVASQSANKQLIMVPNVGHQGMLDDANTMSQYQTFITEL
MGSDKIHHHHHHMQQHPVVSREEWLVKRRALLAREKEAIHQRDAITAERLALPWVKVDTRYVFDTASGKKTLADLFDGRSQLMIYHFMLGPGWAAGCPGCSLVADHLGGTLAHLNHHDVTLIAVSRAPLPEIEAYRQRMGWQFPWASSFGTTFNHDFRVSFTPDELASGAVDYNYTSTQSAQANDELPGLSAFYKDAAGNVYHTYSTYARGLEDLIGTFLILDRAPKGRNESGPMEWVRRHDEYGDAPKANACYEG
MGSDKIHHHHHHMQRENFGPAWLNENNAVMYFIVGTDIDVDIDDEIKTYEDIIQVDINENYHNITYKAIFWINEINKCRHGPKLLLKIDDDVHIDMIGLQFLIKRYSVMDDFMACRVISNGQVVRNNTSKWYLSKKDYKFPNLGTYCQGMVYFISGNLLPILHGNIEKSQFLWMDDWYVTRSLVGDYKISYYSLEQHSISPNTVREVYSSLMAIKTRKWRTIFAHFRPPQKFPMYRRRKIWANITEINNSCNILRKARINFVSAY
MGSDKIHHHHHHMQRQTELKNWLQTVYPERDFDLSFAAADADFRRYFRAAFSDGGSVVCMDAPPDKMSVAPYLKVQKLFDMVNVPQVLHADTDLGFVVLNDLGNTTFLTAMLQEQGEAAHKALLLEAIGELVGLQKASREGVLPEYDRETMLREINLFPEWFVAKELGRELTFKQRQLWQQTADTLLPPLLAQPKVYVHRDFIVRNLMLTRGRPGVLDFQDALYGPISYDLVSLLRDAFIEWEEEFVLDLVIRYWEKARAAGLPVPAEFDEFYRRFEWMGVQRHLKVAGIFARLYYRDGKDKYRPEIPRFLNYLRRVSRRYAELAPLYALLVELVGDEELETGFTF
MGSDKIHHHHHHMQSYSLAELNKETTIGGIGKTVERDVPVIDLADFDNRKAEIADQLWEASVGIGFFQVYNHGIPQQDIDAAFETAWSFFELPADIKAQYPMPKGTNAGWEFKAQVRPSTGTPDNKESYQITRPMMGGLWPSEEELPDFKEKMLRFERQNWELGMRILSCFALKMGFAEDFFTKAHDPASSEYQSTQRLIHYMSMEHAKPEDFEFWRAGAHSDFDCLTILHQKEGEGGLQVCPGKDAASGEWTDVPPKNGYITCNIGDMLMRWSDDQLQSTLHRVRMPRPGEYLGRRLSLPFFCQANRDAVMQGPLGKYEAITAGDYLTQRINANFARK
MGSDKIHHHHHHMQTEVFSDIFPLLSTATPQTLEWLLNIAIDHEYPTGRAVLMEDAWGNAVYFVVSGWVKVRRTCGDDSVALAILGRGDFFGEMAILDESPRSTDVIALSPVKLLSISRERFIQILFKDPQLHHRMLQLMVRRLRQINQRLQIRSSPPAVKLAHTLVSLGESYGQESEQGREIFNIPFKDLAEVTEIGVEETSKIMDKLHDKGWIKIDSANNIIYLINFKQLLNLAGKV
MGSDKIHHHHHHMQTIKLYIKDWLAIHPYIQQQATDRYFVDLANRLYSTCTIREIPESIKKKLCLYTAAYFEDVISGLGLWQAFIKKHLELYDTSLPFYTIRPDYIKDEINEEDIRFIIWNTLEKAPYKHPYINPMDRNIEETSHSFFRILDEEYETAPANDTLQDFFMDFKGKENANHKLRWLFGHTYLTEPSVQEYIAQVTETDKFIIPCGPLALFLHEWIDLLTNGETECWEEIEGLYPAIPEISDEMKERNHHTYQLFTQGTNGARIVYLEGYKELHRFLTQVLQWPDDSNHTLPQMKEHKDFIMMVNSEKGILLAKDICKYISDPLNPMYDAATAAQEAFSLLTIPTKCPPDLMEYVINNHYIPDAQFPEFGERELVQKNADFIARNSLLYYYRGD
MGSDKIHHHHHHMQVRTFKGPSAKTVLDMIKAEIGPEAVILSSRDCSGDGVTWCEMTVGVEREAAAAPRMGRDEPAAGDQTPPAGWDEWHREWDEIKGHIMALMKPALRLDELAPRQRVALEYLEREGVEDNVILALYRRLRGAPSLSVLEPLSAVVPVKGWGGADWPQKMQIVCGPSGVGKTSAVVRMALALRRQNAGVRICVLNADSQRGSGRMVLRHYAELCGMGYHEISGPADAAALLGELDGYDKILVDTPVPGRGATLRSLLEETGLDVLEQQVPAAVQLVMSPLYGDAQISFFLRQYECGLPCGLVWTKLDEACNFGALINVPAASGLPVTALSFGSGLKNSLASARGTMIWRLVFKKQLPGDVAAR
MGSDKIHHHHHHMQVTEQMKLDLARDGAFVARGLFSPEGLKRMREAFDYGIEHPSPQHGYIFKGTPDEHFNDYGNIANRDVHIATIKALVLDEFVASLWDSQHVWFKGEEIFIKKGGKAGRSPWHQDNSYTPVSGPQMLNIWTCFERIPRKNALEVVRGSHLGIQYNGNSYTDPGKPTKPLWLNTDWPDLPDIEAERAKDPNSWDVLSWDLELGDALVFHSGALHGGAPVSADCPDRHTLVYRFFGDKLFYRPLPTGGCNYPYDISALNDPSLMPGEPFRAAWCTQLR
MGSDKIHHHHHHMRAVSIVGLGWLGLTLARHLKNLGWKVKGTKRTHEGVEQMRLIRLEAYHLELTPDINADPDDLTALLSVDALVINIPPSQYFFHLQHYVQGVKNLVNEALLNGLQHIIFISSTSVFPDVSGEFDEQSQIVPQSEMSKALLEIEQWLFELKDVDCDIIRFGGLVGEDRHPVYSLAGKDELSAGNMPINLVHVDDCARAIQLLLETPSSQRLYHLVAPQHPTRAEYYSQIAEKLALEAPHFICSEQDPRRVILANKICRELSFVYQCPDPYLMLFERK
MGSDKIHHHHHHMRDQAESLRRMVDGVMEQGRGQGKVIAVVSGKGGVGKSNVSLNFALTLSRQNQKVALIDLDLGMGNLDILMGLSPSYHIIDMIKRELTIWDIAEQGPEGITYIAGGSGLSELVELNERQMERFFQQLESLGAIYDYIILDMGAGATAESLRFILSAHEIFVVTTPEPTSITDAYAMVKYICKEPIENPEILLIVNRAESKREGEQTAANFKRVVSHFLKKDIHSLGYLPQDSHVVKAVKAQAPFVLHAPQAKASMAMGKLVHTYLGHRVDRGAPSYQSFMKKIRKWFR
MGSDKIHHHHHHMREDFTNEIVTESLNEAGILVEKPSEIRRHFDDLQFDSRKVTKKNTLFVVKGAFKIEYLTASLLDKISGIVTSRKEKINIPNLPHWIVSNSQIALAVLSAEFFGHPEKKLKILGITGTKGKTSSTYMAYSLLDRLTNHQTAMFSTIDTFLGRGIKFKSELTTPESYELFSNMKKALDNGNKYLVMEVSSQSYLKNRVFGIHFKVGAFLNISPDHIGINEHPTFADYLAHKKMLAENSDVFVSNIDDAHGQEFIDHAKSFGAKTVSVSENKKADVNFHIKKADLDESIFYLTEKGNSQEFLLDIPGVFNIYNASVAIAMVREMGFKPEKAKKALAELQIPGRMVKIKTKSHGLIIVDYAHNGQAVTTLLTFLKSQHQGGKIIIVLGSPGDKGEDRRSQFGEVISKFVDVAYLTTDDPGTEDPHQINNQIRKAISNPNVELHEELDRSKAIQEAIKKANINDLVVLAAKGEDAFQKTNHVDVPYLGDKKVAEEFLAEIEKV
MGSDKIHHHHHHMRENKVVYGLIGYGGMGRWHTEILSNVPEAVIGGIYDIKEEKREEAKAKGFSVYETEEAMLADSDIDVVLIATPNDCHKPIAIRAMHAGKNVISEKPVTLSSADLLEMEKVAKETGKLFTVHQNRRWDDDFLIIKKLVEEQKLGHVFRIESRVHGSRGIPGDWRKEKVHGGGMVLDWGVHLLDQILYMYGDRKIETVYASLTNITNQEVDDGFTAILTFEGGTEVLVEVGTNNYISLPRWYVLGKDGTAVIRDWQLTGEIIRKTGKTEETVIPVKTAAGLTKTMAPRREDTIVKEDLPKVSGDIADFHRNVVAVIRDGAEPEIKLFQVMRVMKLMEAIFQAAETKQVIEFQDQV
MGSDKIHHHHHHMRESVVKLNEYTLRIFSLNTIVVGSGAAGLNAVDRVFSFGQKDVALLTDNLKWGTSRNTGSDKQTYYKLTLAGNVPDSVYELAETLFNGGSMDGDIALVEAALSARAFFRLVELGVPFPHSRYGEYVGYKTDHDPKQRATSAGPLTSYYMCEKLLEEIRRKGIKIFEGYQVIGILTDRNEEKTIGLIALDLNNIDDPEKRYVLFNVKNIIYATGGPAGMFYFHSVYPPVHFGATGIAFEAGVMGKNLTEWQFGIASKKFRWNLSGTYQQVIPRYVSTDENGNDEREFLEEYFPDPSTMLNAIFLKGYQWPFDVRKIKNYGSSLIDILVFYETVIKGRRVWLDFTRNPSWGSKNGELDFSLLGKEAYEYLKNSGALFGRPIDRLEKMNRPAIEVYLQHGIDLRKEYLEIGVCAQHNNGGLHGNIWWESNLKHFFPVGEVNGSHGVYRPGGSALNSGQVGGVRAAQYIVENYSGDPLCEEEILEEAKDQILKKIELGESFVKKITGKSNVSSILKEISERSMRSMGIVRSLEEAGKGKNEALRDFNNLIEKVELSSIRQLPFAFRLYDVLLTQYVYLSAVENYIESGGKSRGSYIVHDPTGELPVPNLPEMFRYSLAGESFNKKIQRVRCKENRCEFFWDPVKEIPREDTWFETIWNSFMRREVFR
MGSDKIHHHHHHMRFAPPNPLRIADRASGLNSLSVRSYNERLVLSLLLQNEATTRLEIGEKTGLSAQTISVIVRSLEQEGLVVRGEAQKGRVGPPTTPLMLNSEGAYSVGVSVGYHNTHIVVVDFIGNVQHHRVMPHKAADTFDAPEALALEIRLAVAGLSESRQARIAGVGLALPTPPIRSEPDHDVLHRYLEAEFGLPVFVQNDITAAAGGESLFGTARQLQDFLFFYLGARLHCRLVLNHQIYNGNSPLSYDVGVLALERRLPADSAMAEKLWGQDLSWPPLEATLADWQQACAENLIQLTQSLLQFIELRTVVLSSFVPAAICEALCRLVRQEIPSVNAVVGRTSAAPKAVGAASLPFSSRFMVN
MGSDKIHHHHHHMRFEEAGCHGEFIQADLTKLPFSEPKFDVIFSEGVLHHTDSTEKAIKYLTTLLIPGGHFLFYVYKTKAPIREFTDDYVRNQLINMDDSQAWNELRSLTLLGKILGDLNIEVEIPEPILLLGIPAGRINIQRLFYWYICKAFYNPEWTIDEMNHVNFDWYRPLNCHRHTPEEIMTWCNQAGLKIERMNVQEAGITVVAKKE
